Data from US20130315910A1 (Xencor, published 2013).
Numbering of substitutions follows the chain as printed. Numbers in names are those of the source.

T1: human FcγRIIb receptor protein (R&D Systems) (human, UniProt P31994 46-217)
T1 construct: Bought protein injected over captured antibody in Biacore; also called CD32b
T1 sequence (looked up): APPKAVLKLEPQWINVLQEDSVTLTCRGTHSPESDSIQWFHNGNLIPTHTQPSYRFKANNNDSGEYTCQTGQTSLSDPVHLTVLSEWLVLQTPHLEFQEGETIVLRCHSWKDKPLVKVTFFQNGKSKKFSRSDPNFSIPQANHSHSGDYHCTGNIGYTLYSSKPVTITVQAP

T2: human FcγRIIa (131R), His- and GST-tagged (human, UniProt P12318 34-217)
T2 construct: Expressed in HEK293T cells, purified by nickel chromatography; also called R131 FcγRIIa; not shown: 6xHis and GST tags of the pTT5 vector
T2 sequence (looked up): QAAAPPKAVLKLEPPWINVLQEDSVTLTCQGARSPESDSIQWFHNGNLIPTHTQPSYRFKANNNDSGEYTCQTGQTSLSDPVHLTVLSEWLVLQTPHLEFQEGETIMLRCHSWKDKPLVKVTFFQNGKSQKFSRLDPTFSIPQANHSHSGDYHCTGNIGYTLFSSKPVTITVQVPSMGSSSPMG

T3: human FcγRIIa (131H), His- and GST-tagged (human, UniProt P12318 34-217)
T3 construct: also called H131 FcγRIIa; HIIa; not shown: 6xHis and GST tags of the pTT5 vector
T3 sequence (looked up): T2 sequence (looked up) with R134H

T4: mFcγRIIb (Mus musculus, UniProt P08101)
T4 construct: extracellular region, C-terminal His- and GST-tag; also called mouse FcγRII
T4 sequence (receptor extracellular region, looked up): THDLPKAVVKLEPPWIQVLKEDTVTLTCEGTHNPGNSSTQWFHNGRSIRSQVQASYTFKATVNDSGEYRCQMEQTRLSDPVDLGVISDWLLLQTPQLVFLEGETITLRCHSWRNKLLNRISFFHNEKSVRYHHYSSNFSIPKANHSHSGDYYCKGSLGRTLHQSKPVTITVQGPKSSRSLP

T5: mFcγRIV
T5 construct: also called mouse FcγRIV; not shown: C-terminal His and GST tags (named only on our card)
T5 chain: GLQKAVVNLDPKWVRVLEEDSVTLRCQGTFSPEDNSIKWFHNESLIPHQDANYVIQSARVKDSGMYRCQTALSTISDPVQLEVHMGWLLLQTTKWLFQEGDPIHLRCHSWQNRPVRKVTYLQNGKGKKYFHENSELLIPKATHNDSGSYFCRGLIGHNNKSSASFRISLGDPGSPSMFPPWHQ

T6: cynoFcγRIIb (Macaca fascicularis, UniProt A0A140HDP4)
T6 construct: extracellular region, C-terminal His- and GST-tag; also called cynomolgus monkey FcγRIIb
T6 sequence (receptor extracellular region): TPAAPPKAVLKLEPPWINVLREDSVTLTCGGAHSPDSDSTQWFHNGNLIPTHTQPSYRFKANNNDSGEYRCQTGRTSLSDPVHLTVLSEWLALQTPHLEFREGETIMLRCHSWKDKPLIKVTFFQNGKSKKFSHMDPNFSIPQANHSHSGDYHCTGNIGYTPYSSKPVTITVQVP

B1: G236S (antibody, human IgG1, kappa)
heavy: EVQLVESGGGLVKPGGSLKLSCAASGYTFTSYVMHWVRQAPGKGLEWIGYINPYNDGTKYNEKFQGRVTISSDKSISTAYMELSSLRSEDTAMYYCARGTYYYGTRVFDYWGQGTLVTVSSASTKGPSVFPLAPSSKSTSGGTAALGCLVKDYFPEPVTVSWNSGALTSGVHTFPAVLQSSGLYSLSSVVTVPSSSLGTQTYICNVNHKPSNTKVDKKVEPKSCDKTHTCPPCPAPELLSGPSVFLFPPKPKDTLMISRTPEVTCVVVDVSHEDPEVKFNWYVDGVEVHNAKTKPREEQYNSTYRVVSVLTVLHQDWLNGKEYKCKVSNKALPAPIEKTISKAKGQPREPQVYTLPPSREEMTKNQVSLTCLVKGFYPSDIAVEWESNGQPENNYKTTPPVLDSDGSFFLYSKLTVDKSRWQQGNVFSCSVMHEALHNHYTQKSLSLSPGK
light: DIVMTQSPATLSLSPGERATLSCRSSKSLQNVNGNTYLYWFQQKPGQSPQLLIYRMSNLNSGVPDRFSGSGSGTEFTLTISSLEPEDFAVYYCMQHLEYPITFGAGTKLEIKRTVAAPSVFIFPPSDEQLKSGTASVVCLLNNFYPREAKVQWKVDNALQSGNSQESVTEQDSKDSTYSLSSTLTLSKADYEKHKVYACEVTHQGLSSPVTKSFNRGEC
notes: HuAM4G7 anti-CD19 IgG1 (m1) with this Fc substitution, EU index; copies: 2 + 2
B2: S239D/H268D (antibody, human IgG1, kappa)
heavy: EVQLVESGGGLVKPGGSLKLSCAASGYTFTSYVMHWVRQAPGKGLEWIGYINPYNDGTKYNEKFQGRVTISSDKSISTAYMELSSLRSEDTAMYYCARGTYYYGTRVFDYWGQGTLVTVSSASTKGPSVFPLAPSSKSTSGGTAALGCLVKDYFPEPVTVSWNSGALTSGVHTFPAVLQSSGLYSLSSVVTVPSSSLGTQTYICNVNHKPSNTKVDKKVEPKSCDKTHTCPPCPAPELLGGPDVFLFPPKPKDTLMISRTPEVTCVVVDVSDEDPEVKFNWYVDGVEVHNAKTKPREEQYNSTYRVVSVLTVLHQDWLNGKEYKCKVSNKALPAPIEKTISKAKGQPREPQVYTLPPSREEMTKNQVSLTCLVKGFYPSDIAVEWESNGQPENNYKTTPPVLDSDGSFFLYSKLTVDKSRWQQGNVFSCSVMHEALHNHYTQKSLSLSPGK
light: B1 light
notes: HuAM4G7 anti-CD19 IgG1 (m1) with these Fc substitutions, EU index; copies: 2 + 2
B3: S267E/A327D (antibody, human IgG1, kappa)
heavy: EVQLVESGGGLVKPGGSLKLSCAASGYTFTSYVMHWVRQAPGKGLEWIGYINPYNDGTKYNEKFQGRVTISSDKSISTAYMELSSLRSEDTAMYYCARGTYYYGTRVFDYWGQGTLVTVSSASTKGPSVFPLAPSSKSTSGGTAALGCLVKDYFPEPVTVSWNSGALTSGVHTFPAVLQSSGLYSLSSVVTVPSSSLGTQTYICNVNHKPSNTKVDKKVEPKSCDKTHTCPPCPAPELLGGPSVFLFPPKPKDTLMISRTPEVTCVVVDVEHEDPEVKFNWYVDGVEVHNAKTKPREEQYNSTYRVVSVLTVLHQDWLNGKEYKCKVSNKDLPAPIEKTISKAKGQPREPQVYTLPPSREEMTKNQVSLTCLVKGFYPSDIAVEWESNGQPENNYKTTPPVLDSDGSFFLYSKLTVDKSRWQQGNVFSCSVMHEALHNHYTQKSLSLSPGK
light: B1 light
notes: as for B2
B4: L235Y/S267E/L328F (antibody, human IgG1, kappa)
heavy: EVQLVESGGGLVKPGGSLKLSCAASGYTFTSYVMHWVRQAPGKGLEWIGYINPYNDGTKYNEKFQGRVTISSDKSISTAYMELSSLRSEDTAMYYCARGTYYYGTRVFDYWGQGTLVTVSSASTKGPSVFPLAPSSKSTSGGTAALGCLVKDYFPEPVTVSWNSGALTSGVHTFPAVLQSSGLYSLSSVVTVPSSSLGTQTYICNVNHKPSNTKVDKKVEPKSCDKTHTCPPCPAPELYGGPSVFLFPPKPKDTLMISRTPEVTCVVVDVEHEDPEVKFNWYVDGVEVHNAKTKPREEQYNSTYRVVSVLTVLHQDWLNGKEYKCKVSNKAFPAPIEKTISKAKGQPREPQVYTLPPSREEMTKNQVSLTCLVKGFYPSDIAVEWESNGQPENNYKTTPPVLDSDGSFFLYSKLTVDKSRWQQGNVFSCSVMHEALHNHYTQKSLSLSPGK
light: B1 light
notes: as for B2
B5: S267D/H268D (antibody, human IgG1, kappa)
heavy: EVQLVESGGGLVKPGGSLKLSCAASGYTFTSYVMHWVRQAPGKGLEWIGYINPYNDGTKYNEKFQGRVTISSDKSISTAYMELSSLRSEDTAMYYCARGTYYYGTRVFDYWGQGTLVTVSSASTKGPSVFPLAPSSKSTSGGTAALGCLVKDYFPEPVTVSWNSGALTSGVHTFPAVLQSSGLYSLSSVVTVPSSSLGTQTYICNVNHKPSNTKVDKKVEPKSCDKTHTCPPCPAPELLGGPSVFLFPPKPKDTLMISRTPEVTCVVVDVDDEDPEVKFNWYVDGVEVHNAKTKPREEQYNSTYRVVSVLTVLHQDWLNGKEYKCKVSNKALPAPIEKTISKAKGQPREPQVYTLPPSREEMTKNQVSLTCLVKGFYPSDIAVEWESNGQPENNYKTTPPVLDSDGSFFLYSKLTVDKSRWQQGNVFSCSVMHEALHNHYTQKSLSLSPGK
light: B1 light
notes: as for B2
B6: S267E/H268E/L328F (antibody, human IgG1, kappa)
heavy: B4 heavy with Y239L, H272E
light: B1 light
notes: as for B2
B7: S267E/L328Q (antibody, human IgG1, kappa)
heavy: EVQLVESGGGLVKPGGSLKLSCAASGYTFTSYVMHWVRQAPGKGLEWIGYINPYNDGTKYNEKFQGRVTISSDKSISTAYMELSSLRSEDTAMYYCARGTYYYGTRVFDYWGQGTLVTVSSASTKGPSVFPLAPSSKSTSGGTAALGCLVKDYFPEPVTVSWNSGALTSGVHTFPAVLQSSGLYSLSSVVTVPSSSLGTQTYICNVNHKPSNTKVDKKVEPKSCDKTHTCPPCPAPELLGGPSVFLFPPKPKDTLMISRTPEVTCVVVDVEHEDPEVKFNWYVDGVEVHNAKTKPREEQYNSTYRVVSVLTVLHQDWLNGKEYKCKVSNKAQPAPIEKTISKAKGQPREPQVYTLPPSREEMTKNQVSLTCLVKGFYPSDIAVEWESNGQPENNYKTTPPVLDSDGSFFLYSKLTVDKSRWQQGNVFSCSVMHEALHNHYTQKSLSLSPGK
light: B1 light
notes: as for B2
B8: L235D/S239D (antibody, human IgG1, kappa)
heavy: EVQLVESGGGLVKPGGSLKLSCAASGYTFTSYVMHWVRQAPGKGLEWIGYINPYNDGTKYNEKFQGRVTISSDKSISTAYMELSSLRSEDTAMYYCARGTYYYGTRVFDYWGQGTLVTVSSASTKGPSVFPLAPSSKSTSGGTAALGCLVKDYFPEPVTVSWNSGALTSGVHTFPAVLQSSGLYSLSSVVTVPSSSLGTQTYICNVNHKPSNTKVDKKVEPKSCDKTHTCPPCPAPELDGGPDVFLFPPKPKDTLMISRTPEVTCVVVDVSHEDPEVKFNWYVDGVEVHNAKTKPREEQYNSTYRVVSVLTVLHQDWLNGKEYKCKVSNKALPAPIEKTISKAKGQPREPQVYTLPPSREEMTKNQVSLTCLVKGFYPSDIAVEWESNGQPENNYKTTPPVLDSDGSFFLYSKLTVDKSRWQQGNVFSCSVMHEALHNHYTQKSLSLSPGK
light: B1 light
notes: as for B2
B9: S239D/S267D (antibody, human IgG1, kappa)
heavy: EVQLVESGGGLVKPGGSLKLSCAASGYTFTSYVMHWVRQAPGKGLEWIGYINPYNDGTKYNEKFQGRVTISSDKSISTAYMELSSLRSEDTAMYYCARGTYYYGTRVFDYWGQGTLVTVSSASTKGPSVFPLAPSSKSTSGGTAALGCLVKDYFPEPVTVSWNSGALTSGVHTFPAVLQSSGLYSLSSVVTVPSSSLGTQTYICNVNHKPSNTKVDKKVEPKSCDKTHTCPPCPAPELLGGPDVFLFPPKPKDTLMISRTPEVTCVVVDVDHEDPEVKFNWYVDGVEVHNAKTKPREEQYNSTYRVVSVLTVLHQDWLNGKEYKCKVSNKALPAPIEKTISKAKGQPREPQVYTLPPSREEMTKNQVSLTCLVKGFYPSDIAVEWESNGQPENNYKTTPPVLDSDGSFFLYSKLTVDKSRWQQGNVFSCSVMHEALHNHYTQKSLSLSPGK
light: B1 light
notes: as for B2
B10: D265E (antibody, human IgG1, kappa)
heavy: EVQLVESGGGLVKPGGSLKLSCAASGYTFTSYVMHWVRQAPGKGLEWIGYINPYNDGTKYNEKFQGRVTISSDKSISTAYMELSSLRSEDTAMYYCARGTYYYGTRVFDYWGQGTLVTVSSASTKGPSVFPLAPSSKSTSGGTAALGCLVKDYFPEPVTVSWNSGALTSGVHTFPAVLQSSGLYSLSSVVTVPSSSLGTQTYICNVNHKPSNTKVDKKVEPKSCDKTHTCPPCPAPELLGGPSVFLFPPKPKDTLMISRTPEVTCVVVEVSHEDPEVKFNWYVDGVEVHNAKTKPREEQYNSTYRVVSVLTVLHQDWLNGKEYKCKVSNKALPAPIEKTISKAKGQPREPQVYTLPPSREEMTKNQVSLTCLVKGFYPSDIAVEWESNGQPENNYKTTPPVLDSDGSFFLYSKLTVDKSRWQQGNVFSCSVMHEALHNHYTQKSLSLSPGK
light: B1 light
notes: as for B1
B11: H268N (antibody, human IgG1, kappa)
heavy: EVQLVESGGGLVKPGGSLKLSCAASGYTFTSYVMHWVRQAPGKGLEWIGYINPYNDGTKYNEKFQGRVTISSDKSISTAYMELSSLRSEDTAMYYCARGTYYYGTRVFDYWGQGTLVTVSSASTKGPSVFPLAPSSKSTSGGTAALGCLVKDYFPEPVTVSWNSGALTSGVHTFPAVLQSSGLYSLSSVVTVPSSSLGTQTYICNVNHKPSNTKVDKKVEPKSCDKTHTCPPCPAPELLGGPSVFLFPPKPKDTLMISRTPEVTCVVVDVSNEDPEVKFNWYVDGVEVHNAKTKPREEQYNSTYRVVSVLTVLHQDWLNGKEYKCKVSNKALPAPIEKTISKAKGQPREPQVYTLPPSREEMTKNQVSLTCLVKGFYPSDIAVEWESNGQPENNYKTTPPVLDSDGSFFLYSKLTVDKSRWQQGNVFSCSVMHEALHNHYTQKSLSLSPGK
light: B1 light
notes: as for B1
B12: H268D/A327D (antibody, human IgG1, kappa)
heavy: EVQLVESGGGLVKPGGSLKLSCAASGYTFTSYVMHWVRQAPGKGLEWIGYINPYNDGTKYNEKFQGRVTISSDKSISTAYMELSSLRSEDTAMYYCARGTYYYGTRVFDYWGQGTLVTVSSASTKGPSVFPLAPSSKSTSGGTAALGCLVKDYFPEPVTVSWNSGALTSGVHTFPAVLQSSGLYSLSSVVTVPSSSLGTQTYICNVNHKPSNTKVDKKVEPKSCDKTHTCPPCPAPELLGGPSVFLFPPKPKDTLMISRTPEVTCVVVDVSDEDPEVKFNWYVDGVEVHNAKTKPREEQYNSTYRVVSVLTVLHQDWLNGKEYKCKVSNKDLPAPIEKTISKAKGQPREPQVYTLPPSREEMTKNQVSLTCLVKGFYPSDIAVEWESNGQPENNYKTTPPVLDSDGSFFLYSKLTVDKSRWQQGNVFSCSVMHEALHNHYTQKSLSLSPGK
light: B1 light
notes: as for B2
B13: S239D/S267E/L328F (antibody, human IgG1, kappa)
heavy: B4 heavy with Y239L, S243D
light: B1 light
notes: as for B2
B14: A327G (antibody, human IgG1, kappa)
heavy: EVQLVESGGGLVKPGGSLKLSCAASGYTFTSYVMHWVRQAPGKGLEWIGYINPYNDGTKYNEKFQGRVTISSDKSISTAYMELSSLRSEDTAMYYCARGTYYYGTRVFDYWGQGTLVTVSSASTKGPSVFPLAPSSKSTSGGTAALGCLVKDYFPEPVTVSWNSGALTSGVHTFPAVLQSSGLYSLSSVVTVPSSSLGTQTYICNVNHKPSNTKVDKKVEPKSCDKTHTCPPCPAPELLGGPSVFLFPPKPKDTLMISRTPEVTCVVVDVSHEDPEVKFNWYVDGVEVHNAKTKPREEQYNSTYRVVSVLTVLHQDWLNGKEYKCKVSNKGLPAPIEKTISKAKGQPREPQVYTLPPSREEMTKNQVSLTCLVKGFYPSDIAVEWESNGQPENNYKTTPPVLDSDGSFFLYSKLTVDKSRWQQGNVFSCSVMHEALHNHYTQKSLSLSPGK
light: B1 light
notes: as for B1

target: T1, human FcγRIIb receptor protein (R&D …); experiment: SPR

Row | Fold vs WT IgG1 [fold] | Kd [nM] | Binder
1 | 1.02 | 1440 | B1
2 | 14.4 | 102 | B2
3 | 21.2 | 69.1 | B3
4 | 187 | 7.83 | B4
5 | 14.2 | 103 | B5
6 | 344 | 4.26 | B6
7 | 12.1 | 121 | B7
8 | 4.11 | 357 | B8
9 | 22.3 | 65.9 | B9
10 | 0.417 | 3520 | B10
11 | 1.17 | 1250 | B11
12 | 7.68 | 191 | B12
13 | 428 | 3.43 | B13
14 | 0.353 | 4160 | B14

target: T7, human FcγRI receptor protein (R&D Systems) (human, UniProt P12314 16-288); experiment: SPR
T7 construct: also called soluble FcγRI; solFcγRI
T7 sequence (P12314 16-288 limits assumed): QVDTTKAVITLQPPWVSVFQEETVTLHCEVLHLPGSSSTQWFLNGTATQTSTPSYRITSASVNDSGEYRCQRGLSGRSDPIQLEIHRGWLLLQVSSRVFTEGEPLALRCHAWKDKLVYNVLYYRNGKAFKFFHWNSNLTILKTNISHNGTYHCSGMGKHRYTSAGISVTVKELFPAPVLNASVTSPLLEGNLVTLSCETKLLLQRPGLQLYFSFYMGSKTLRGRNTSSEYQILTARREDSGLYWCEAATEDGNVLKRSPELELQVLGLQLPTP

Row | Fold vs WT IgG1 [fold] | Kd [nM] | Binder
15 | 0.0268 | 12.3 | B1
16 | 1.66 | 0.198 | B3
17 | 0.00436 | 75.5 | B4
18 | 0.991 | 0.333 | B6
19 | 1.45 | 0.227 | B13

target: T2, human FcγRIIa (131R), His- and …; experiment: SPR

Row | Fold vs WT IgG1 [fold] | Kd [nM] | Binder
20 | 2.33 | 369 | B1
21 | 16.7 | 51.3 | B3
22 | 171 | 5.02 | B4
23 | 253 | 3.4 | B6
24 | 0.307 | 2790 | B10
25 | 1.79 | 481 | B11
26 | 416 | 2.06 | B13
27 | 0.319 | 2690 | B14

target: T3, human FcγRIIa (131H), His- and …; experiment: SPR

Row | Fold vs WT IgG1 [fold] | Kd [nM] | Binder
28 | 3.76 | 172 | B1
29 | 0.758 | 853 | B4
30 | 0.826 | 783 | B6
31 | 1.71 | 378 | B13

target: T8, human FcγRIIIa (158V), His- and GST-tagged (human, UniProt P08637 17-208); experiment: SPR
T8 construct: also called V158 FcγRIIIa; VIIIa; not shown: 6xHis and GST tags of the pTT5 vector
T8 sequence (P08637 17-208 F176V): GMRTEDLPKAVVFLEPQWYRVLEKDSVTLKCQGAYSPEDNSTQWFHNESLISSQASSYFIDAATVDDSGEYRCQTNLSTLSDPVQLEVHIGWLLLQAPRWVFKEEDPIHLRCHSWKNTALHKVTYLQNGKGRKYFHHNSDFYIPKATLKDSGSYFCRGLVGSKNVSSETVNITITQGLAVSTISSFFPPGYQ

Row | Fold vs WT IgG1 [fold] | Kd [nM] | binding result | Binder
32 | 0.00367 | 52200 | – | B1
33 | 0.00199 | 96300 | – | B3
34 | – | – | no binding | B4
35 | 0.092 | 2080 | – | B6
36 | 0.216 | 887 | – | B13

target: T4, mFcγRIIb; experiment: SPR

Row | Fold vs WT IgG1 (off-rate) [fold] | Fold vs WT IgG1 (Kd) [fold] | Binder
37 | 0.971 | – | B3
38 | 0.968 | 0.902 | B5
39 | 0.881 | – | B7
40 | – | 1.98 | B9
41 | 0.833 | – | B10
42 | 1.6 | – | B11
43 | 5.09 | 3.22 | B12
44 | 1.45 | – | B14

Target: T5, mFcγRIV
Experiment: SPR

Row | Fold vs WT IgG1 (Kd) [fold] | Fold vs WT IgG1 (off-rate) [fold] | Binder
45 | 1.06 | 2.21 | B2
46 | 0.598 | – | B5
47 | – | 0.454 | B7
48 | – | 1.57 | B8
49 | 1 | 1.88 | B9
50 | – | 0.526 | B10
51 | – | 1.02 | B11
52 | 0.443 | – | B12
53 | – | 1.23 | B14

target: T6, cynoFcγRIIb; experiment: SPR

Row | Fold vs WT IgG1 (Kd) [fold] | Fold vs WT IgG1 (off-rate) [fold] | Binder
54 | 3.55 | – | B1
55 | – | 0.697 | B3
56 | 1.86 | 1.96 | B5
57 | 3.51 | – | B6
58 | – | 0.367 | B7
59 | 1.79 | – | B9
60 | – | 0.648 | B10
61 | – | 1.34 | B11
62 | 1.47 | 1.8 | B12
63 | 4.58 | – | B13
64 | – | 0.903 | B14

target: T9, cynoFcγRIIIa (Macaca fascicularis, UniProt Q8SPW2); experiment: SPR
T9 construct: extracellular region, C-terminal His- and GST-tag; also called cynomolgus monkey FcγRIIIa
T9 sequence (Q8SPW2 17-208): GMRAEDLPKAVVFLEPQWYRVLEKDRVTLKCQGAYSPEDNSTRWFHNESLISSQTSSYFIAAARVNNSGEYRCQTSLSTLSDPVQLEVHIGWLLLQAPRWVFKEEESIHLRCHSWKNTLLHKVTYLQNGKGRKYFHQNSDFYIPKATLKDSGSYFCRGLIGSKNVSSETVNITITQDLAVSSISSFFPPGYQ

Row | Fold vs WT IgG1 (Kd) [fold] | Fold vs WT IgG1 (off-rate) [fold] | Binder
65 | 1.45 | – | B1
66 | 8.68 | 3.62 | B2
67 | 5.33 | – | B5
68 | 1.04 | – | B6
69 | – | 0.124 | B7
70 | – | 1.41 | B8
71 | 7.66 | 2.73 | B9
72 | – | 0.636 | B10
73 | – | 0.99 | B11
74 | 1.73 | – | B12
75 | 1.17 | – | B13
76 | – | 0.443 | B14
